Test results reported in patent publication US20250340661A1 (JIANGSU HENGRUI PHARMACEUTICALS, published 2025).
Substitutions are numbered along the chain they refer to. Names may count otherwise. Like-named read-outs stand apart in the source and are kept apart here. Values belong to the binder of their own block, whether it stands above or below them.

Assays:
[1] = target: T1, human CD40 on the cell surface (human, UniProt P25942 21-277); assay: cell-based or functional assay
[2] = target: T2, his-tagged cynomolgus monkey CD40 (cyno-CD40-his) recombinant protein (cynomolgus monkey); assay: SPR (Biacore), antibody captured on anti-human Fc chip, His-tagged CD40 as analyte, 1:1 model
T2 construct: Bought from Acrobiosystems, Cat. #CD0-C52H6
Experimental: (§1) The test antibody was affinity-captured on an anti-human Fc chip, and a series of concentrations of His-tagged human or cynomolgus monkey CD40 antigen were allowed to flow over the chip surface. Reaction signals were detected in real time using a Biacore instrument, and thus binding and dissociation curves were obtained. The buffer used in the experiment was HBS-EP+10× buffer solution (Cat. #BR-1006-69, GE) diluted to 1× (pH 7.4) with D. I. Water. Fitting was performed on the data obtained from the experiment using a (1:1) Binding model to obtain affinity values. 9E6-L4H2 and 2F12-L4H2 have similar binding constants for human CD40 to CFZ533, 9E6-L4H2 has a stronger binding affinity for cynomolgus monkey CD40, and 2F12-L4H2 has a slightly weak binding affinity for cynomolgus monkey CD40.

[3] = target: T3, his-tagged human CD40 (h-CD40-his) recombinant protein (human, UniProt P25942 21-193); assay: as above
T3 construct: Bought from Acrobiosystems, Cat. #CD0-H5228; also called His-tagged human CD40 antigen; not shown: His tag
Experimental: as §1

human FcRn antigen = human FcRn antigen (human, UniProt P55899 24-297; P61769 21-119); assay: SPR (Biacore), antibody captured on anti-human Fab chip, human FcRn as analyte, steady state model
Experimental: The test antibody was affinity-captured on an anti-human Fab chip, and a series of concentrations of human FcRn antigen (purchased from AcroBiosystem) were allowed to flow over the chip surface. Reaction signals where the reactions were in a steady state were detected in real time using a Biacore instrument. The buffer used in the experiment was HBS-EP+10× buffer solution (Cat. #BR-1006-69, GE) diluted to 1× (pH 7.4) with D. I. Water. Fitting was performed on the data obtained from the experiment using a steady state binding model to obtain affinity values. The anti-CD40 antibodies carrying the AAYTE mutation have a higher binding affinity for human FcRn than their parent antibodies.

[4] = target: T1, human CD40 on the cell surface; assay: cell-based or functional assay; remark: listed apart in the source
[5] = target: T1, human CD40 on the cell surface; assay: cell-based or functional assay; remark: listed apart in the source
[6] = target: T1, human CD40 on the cell surface; assay: cell-based or functional assay; remark: listed apart in the source
[7] = target: T1, human CD40 on the cell surface; assay: cell-based or functional assay; remark: listed apart in the source
[8] = target: T1, human CD40 on the cell surface; assay: flow cytometry on Raji cells, Alexa Fluor 488 anti-human IgG (H+L) detection
Experimental: Raji cells were plated at 1.5E5/well, and various concentrations of CD40 antagonistic antibodies were added. The plate was incubated at 4° C. for 1 h. After two washes with FACS buffer (PBS+2% FBS), a secondary antibody (Alexa Flour488 conjugated anti-human IgG (H+L) antibody) was added, and the plate was incubated at 4° C. for 0.5 h.
After two washes with FACS buffer, the fluorescence intensity on the cell surface was measured by flow cytometry (BD FACS Celesta).

[9] = target: T1, human CD40 on the cell surface; assay: cell-based or functional assay; remark: listed apart in the source
[10] = target: T1, human CD40 on the cell surface; assay: cell-based or functional assay; remark: listed apart in the source
[11] = target: T1, human CD40 on the cell surface; assay: flow cytometry on Raji cells, AF647 anti-human IgG detection
Experimental: Raji cells are of a tumor cell line that overexpresses human CD40. 2E5 Raji cells were inoculated onto a 96-well plate. 100 μL of a test antibody was added, with the highest final concentration of 100 nM. The antibody was 5-fold diluted to 8 concentrations. The plate was incubated at 4° C. for 1 h. […] The plate was incubated at 4° C. for 30 min. The plate was washed once with wash buffer, and fluorescence intensity was measured using a flow cytometer. The binding EC₅₀ values of the anti-CD40 antibodies for CD40 were calculated. The anti-CD40 antagonistic antibody CFZ533 (i.e., iscalimab, Nova) was used as a positive control, and the heavy and light chain variable region sequences were derived from sequence 5 and sequence 2 of U.S. Pat. No. 8,277,810B, respectively.

[12] = target: T1, human CD40 on the cell surface; assay: cell-based or functional assay; remark: listed apart in the source
[13] = target: T1, human CD40 on the cell surface; assay: cell-based or functional assay; remark: listed apart in the source

T1 sequence (P25942 21-277): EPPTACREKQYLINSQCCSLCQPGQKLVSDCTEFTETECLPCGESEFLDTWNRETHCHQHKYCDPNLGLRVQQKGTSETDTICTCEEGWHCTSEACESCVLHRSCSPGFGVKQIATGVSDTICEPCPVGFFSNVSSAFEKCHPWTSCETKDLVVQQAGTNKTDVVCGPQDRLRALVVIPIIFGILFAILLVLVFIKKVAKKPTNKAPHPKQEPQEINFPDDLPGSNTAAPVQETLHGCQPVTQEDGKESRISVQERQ
T3 sequence (P25942 21-193 limits assumed): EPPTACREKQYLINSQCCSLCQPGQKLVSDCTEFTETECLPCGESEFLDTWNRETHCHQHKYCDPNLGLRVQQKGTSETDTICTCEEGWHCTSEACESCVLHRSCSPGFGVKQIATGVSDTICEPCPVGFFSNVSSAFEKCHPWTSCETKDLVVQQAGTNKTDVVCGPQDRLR

B1: humanized anti-CD40 antibody 9E6-L4H2 (antibody, human IgG1, kappa, N297A)
heavy: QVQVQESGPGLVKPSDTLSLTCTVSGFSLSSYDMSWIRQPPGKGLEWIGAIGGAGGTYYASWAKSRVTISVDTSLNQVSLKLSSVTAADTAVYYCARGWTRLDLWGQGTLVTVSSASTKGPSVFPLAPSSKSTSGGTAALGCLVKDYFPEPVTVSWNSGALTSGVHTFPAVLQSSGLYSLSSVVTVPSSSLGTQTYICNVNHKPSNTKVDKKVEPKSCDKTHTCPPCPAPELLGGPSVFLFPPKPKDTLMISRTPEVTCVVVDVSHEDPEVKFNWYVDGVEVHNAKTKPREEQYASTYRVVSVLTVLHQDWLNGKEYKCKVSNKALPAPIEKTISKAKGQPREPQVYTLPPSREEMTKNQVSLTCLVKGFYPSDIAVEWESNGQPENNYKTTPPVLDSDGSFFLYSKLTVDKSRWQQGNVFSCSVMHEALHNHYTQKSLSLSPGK
light: DIQLTQSPSFLSASVGDRVTITCQASEDISSNLAWYQQKPGKPPKLLIFPASNLASGVPSRFSGSGSGTEFTLTISSLQPEDFATYYCQGGYWTSTSNFGQGFGGGTKVEIKRTVAAPSVFIFPPSDEQLKSGTASVVCLLNNFYPREAKVQWKVDNALQSGNSQESVTEQDSKDSTYSLSSTLTLSKADYEKHKVYACEVTHQGLSSPVTKSFNRGEC
notes: human IgG1 N297A (Eu) heavy chain, human kappa light chain; 9E6-L4 light chain and 9E6-H2 heavy chain
B cell activation assay, CD19+CD69+ % IC50 [1]: 0.14 nM | B cell activation assay, CD19+CD69+ MFI IC50 [1]: 0.07 nM | Kd [2]: 0.121 nM | koff [2]: 6.23e-05 s⁻¹ | kon [2]: 514000 M⁻¹ s⁻¹ | Kd [3]: 0.536 nM | koff [3]: 0.000221 s⁻¹ | kon [3]: 413000 M⁻¹ s⁻¹ | Kd (human FcRn antigen): 293 nM | IC50 (read off the curve), CD40L-induced B cell activation (CD19+CD69+ MFI) [4]: ~0.2 nM | IC50 (read off the curve), CD40L-induced IL-12/23 p40 secretion by DC cells [5]: 1 to 2 nM | IC50 in DC cell activation assay system, CD80 MFI [6]: 3.44 nM | IC50 in DC cell activation assay system, CD86 MFI [6]: 3.72 nM | IC50 in DC cell activation assay system, IL-12/23 p40 [6]: 1.85 nM | IC50 in DC cell activation assay system, TNFα [6]: 0.7 nM | IC50 for the inhibition of CD40 reporter gene cell activity (Assay 2) [7]: 0.5 nM | EC50 [8]: 0.87 nM | IC50 (read off the curve), CD40L-induced TNFα secretion by DC cells [9]: ~0.7 nM

B3: 3F6 human-rabbit chimeric anti-CD40 antibody (antibody, human IgG1, V domains shown)
VH: QSVKESEGGLFKPTDTLTLTCTVSGFSLSSYAISWVRQAPGNGLEWIGAIDRYGTTYYATWAKSRSTITRNTNENTVTLKMTSLTAADTATYFCARGPWYYGGDVAWTGSFDPWGPGTLVTVSS
VL: AQVLTQTASPVSAAVGGTVTISCQSSQSVANNDFLSWYQQKPGQPPKLLIYGASTLASGVPSRFRGNGSGTQFTLTITGMQCDDAATYFCTGGYAGPIYIFGGGTEVVVK
reporter gene cell activity IC50 (HEK-Blue CD40L cells, SEAP) [10]: 0.378 nM | EC50 [11]: 1.51 nM

B4: 5A9 human-rabbit chimeric anti-CD40 antibody (antibody, human IgG1, V domains shown)
VH: QSVKESEGGLFKPTDTLTLTCTASRFSLSSYDMSWVRQAPGNGLEWIGAIGGAGGTYYASWAKSRSTITRNTNLNTLTLKMTSLTAADTATYFCARGWTRLDLWGQGTLVTVSS
VL: DIVLTQTASPVSGAVGGTVTINCQSSEDISSNLSWYQQKPGQPPKLLIYAASNLASGVPSRFKGSGSGTEFTLTISDLECADAATYYCQGGYWSGISNFGNGFGGGTEVVVK
reporter gene cell activity IC50 (HEK-Blue CD40L cells, SEAP) [10]: 0.317 nM | EC50 [11]: 0.671 nM

B6: 2F12 human-rabbit chimeric anti-CD40 antibody (antibody, human IgG1, V domains shown)
VH: QSVKESEGGLFKPKDTLTLTCTVSGFSLSSYGVSWVRQAPGNGLEWIGGIGSDGSAYYASWAKSRATITRDTNLKTVTLEMTSLTAADTATYFCARGGITVYAMWGPGTLVTVSS
VL: AFELTQTPASVEAAMGGTVTIKCQASQSISNGLAWYQQKPGQPPKLLIVGASNLASGVSSRFKGSGSGTEFTLSISDLECADGATYYCQSYFSSSSTVFGGGTEVVVK
notes: Rabbit variable regions joined to human IgG1 constant region with N297A (Eu) and human kappa constant region
reporter gene cell activity IC50 (HEK-Blue CD40L cells, SEAP) [10]: 0.172 nM | EC50 [11]: 0.412 nM | EC50 [8]: 0.479 nM

B7: 5B8 human-rabbit chimeric anti-CD40 antibody (antibody, human IgG1, V domains shown)
VH: B6 VH with K14T, S29N, G49A, D53S, K63R, A66S, K75N, E80K, M104I
VL: AFELTQTPSPVSAAVGGTVTINCQASEDITNGIAWYQQKPGQPPKLLIAGASNLASGVSSRFKGSGSGTEFTLTISDLECDDAATYYCQSYYSSSYTIFGGGTEVVVK
reporter gene cell activity IC50 (HEK-Blue CD40L cells, SEAP) [10]: 0.203 nM | EC50 [11]: 0.435 nM

B8: 4F6 human-rabbit chimeric anti-CD40 antibody (antibody, human IgG1, V domains shown)
VH: B6 VH with K14A, G25R, S34T, G49A, D53T, A66S, K75N, E80K, V101A, M104I
VL: AFELTQTPSSVEAAVGGTVTIKCQASQSISNGLAWYQQKPGQPPKLLIAGASNLASGVSSRFKGSGSGIEFILTISDLECADAATYYCQSYYNSFTTVFGGGTEVVVK
reporter gene cell activity IC50 (HEK-Blue CD40L cells, SEAP) [10]: 0.182 nM | EC50 [11]: 0.258 nM

Now from value to binder:

Kd (human FcRn antigen): 39.8 nM | IC50 (read off the curve), CD40L-induced B cell activation (CD19+CD69+ MFI) [4]: ~0.2 nM | IC50 (read off the curve), CD40L-induced IL-12/23 p40 secretion by DC cells [5]: ~1 nM | IC50 (read off the curve), CD40L-induced TNFα secretion by DC cells [9]: ~0.5 nM
B2: humanized anti-CD40 antibody 9E6-L4H2-AAYTE (antibody, human IgG1, kappa, L234A L235A)
heavy: QVQVQESGPGLVKPSDTLSLTCTVSGFSLSSYDMSWIRQPPGKGLEWIGAIGGAGGTYYASWAKSRVTISVDTSLNQVSLKLSSVTAADTAVYYCARGWTRLDLWGQGTLVTVSSASTKGPSVFPLAPSSKSTSGGTAALGCLVKDYFPEPVTVSWNSGALTSGVHTFPAVLQSSGLYSLSSVVTVPSSSLGTQTYICNVNHKPSNTKVDKKVEPKSCDKTHTCPPCPAPEAAGGPSVFLFPPKPKDTLYITREPEVTCVVVDVSHEDPEVKFNWYVDGVEVHNAKTKPREEQYNSTYRVVSVLTVLHQDWLNGKEYKCKVSNKALPAPIEKTISKAKGQPREPQVYTLPPSREEMTKNQVSLTCLVKGFYPSDIAVEWESNGQPENNYKTTPPVLDSDGSFFLYSKLTVDKSRWQQGNVFSCSVMHEALHNHYTQKSLSLSPGK
light: B1 light
notes: light chain unchanged from 9E6-L4H2

reporter gene cell activity IC50 (HEK-Blue CD40L cells, SEAP) [10]: 0.221 nM | EC50 [11]: 0.608 nM | EC50 [8]: 0.895 nM
B5: 9E6 human-rabbit chimeric anti-CD40 antibody (antibody, human IgG1, V domains shown)
VH: B4 VH with K4R, F11V, A23V, R25G, L77V, T82S
VL: B4 VL with A8P, N22K, S25A, S34A, Y49F, A50P, P59S, S94T, G95S, I96T

Kd (human FcRn antigen): 44.2 nM | IC50 (read off the curve), CD40L-induced TNFα secretion by DC cells [12]: ~0.3 nM | IC50 (read off the curve), CD40L-induced IL-12/23 p40 secretion by DC cells [13]: ~0.6 nM
B9: humanized anti-CD40 antibody 2F12-L4H2-AAYTE (antibody, human IgG1, kappa, L234A L235A)
heavy: EVTVKESGPVLVKPTETLTLTCTVSGFSLSSYGVSWIRQPPGKALEWLGGIGSDGSAYYASWAKSRLTISRDTNLKQVVLTMTNMDPVDTATYYCARGGITVYAMWGQGTLVTVSSASTKGPSVFPLAPSSKSTSGGTAALGCLVKDYFPEPVTVSWNSGALTSGVHTFPAVLQSSGLYSLSSVVTVPSSSLGTQTYICNVNHKPSNTKVDKKVEPKSCDKTHTCPPCPAPEAAGGPSVFLFPPKPKDTLYITREPEVTCVVVDVSHEDPEVKFNWYVDGVEVHNAKTKPREEQYNSTYRVVSVLTVLHQDWLNGKEYKCKVSNKALPAPIEKTISKAKGQPREPQVYTLPPSREEMTKNQVSLTCLVKGFYPSDIAVEWESNGQPENNYKTTPPVLDSDGSFFLYSKLTVDKSRWQQGNVFSCSVMHEALHNHYTQKSLSLSPGK
light: AFQLTQSPSSLSASVGDRVTITCQASQSISTGLAWYQQKPGKPPKLLIVGASNLASGVPSRFSGSGSGTDFTLTISSLQPEDFATYYCQSYFSSSSTVFGGGTKVEIKRTVAAPSVFIFPPSDEQLKSGTASVVCLLNNFYPREAKVQWKVDNALQSGNSQESVTEQDSKDSTYSLSSTLTLSKADYEKHKVYACEVTHQGLSSPVTKSFNRGEC
notes: light chain unchanged from 2F12-L4H2
